Numbering of substitutions follows the chain as printed. Numbers in names are those of the source.

The target in series [1] is Thermus thermophilus xylose isomerase (xylA), mutant 1010 (M1010) (Thermus thermophilus, UniProt P26997). Format: biochemical. The method, then:
(§1) The cells were harvested by centrifugation in the stationary phase of growth and washed once with ice cold distilled water. Washed cells were resusprended in 100 mM triethanolamine, pH 7.0, 0.5 mg/ml lysozyme (130000 U/mg), 0.25 mg/ml DNase, and 1 mM phenylmethylsulphonyl fluoride (PMSF) in dimethylsulfoxide (DMSO). The suspensions were kept at room temperature for one hour and then on ice for two hours before being put in a freezer at −20° C. The cell lysates were thawed on ice, cell debris was removed by centrifugation (1300 rpm for 15 minutes at 4° C.) and the supernatants were used as the crude enzyme preparations.
(§2) Protein concentration was determined with the Bradford method (Bradford (1976)) using the Pierce protein reagent with bovine serum albumin as standard.
(§3) The reaction was terminated after 10 minutes by adding 150 μl 50% trichloroaceticacid. The reaction mixture was neutralized with 185 μl 2 M Na2CO3. The formed xylulose or fructose was measured on a COBAS MIRA (Roche) automated spectrophotometer via enzymatic reduction with 0.04 or 0.5 units of Sorbitol Dehydrogenase (purchased from Roche), respectively in the presence of 0.15 mM NADH at pH 7.0, 37° C. in 200 μl reaction volume. The rate of disappearance of NADH was followed at 340 nm and the concentration of D-xylulose or D-fructose was calculated using calibration curves. […] The specific activity (U min^−1 mg^−1) was determined from the activity and the protein concentration of the crude enzyme preparations.
(§4) The kinetic parameters Vmax (μmol min^−1 mg^−1) and Km (mM) were determined from Michaelis-Menten plots of specific activities at various substrate concentrations by nonlinear regression analysis with Sigma Plot (SSPS Inc.) software. Typically, duplicate measurements were used to determine the Km value at 6-10 concentrations of the substrate, with a concentration range covering the value of Km.

In series [2] the target is T1, Thermus thermophilus xylose isomerase (xylA), mutant 1026 (M1026) (Thermus thermophilus, UniProt P26997, E372G).
T1 construct: made in house; host or cells: E. coli HB101 (crude lysate)
T1 sequence (P26997 1-387 E372G): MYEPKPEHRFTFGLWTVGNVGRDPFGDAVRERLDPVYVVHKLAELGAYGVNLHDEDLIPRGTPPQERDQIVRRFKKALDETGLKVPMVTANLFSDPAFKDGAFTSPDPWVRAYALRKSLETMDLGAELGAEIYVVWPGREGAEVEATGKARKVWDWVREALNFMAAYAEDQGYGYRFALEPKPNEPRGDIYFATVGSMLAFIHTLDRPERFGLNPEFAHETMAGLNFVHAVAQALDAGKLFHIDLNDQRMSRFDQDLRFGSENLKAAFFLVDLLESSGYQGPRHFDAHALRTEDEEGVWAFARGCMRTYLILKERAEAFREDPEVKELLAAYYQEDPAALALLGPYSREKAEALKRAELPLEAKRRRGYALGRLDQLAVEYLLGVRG
Description: Kinetic characterisation of mutant xylose isomerase 1026 (xylose/glucose isomerase activity, xylitol inhibition). Format: biochemical. The conditions noted are these: mutant 1026, crude enzyme, 10 mM MnCl2, pH 7.0. The protocol:
as §1, §2
(§5) The reaction was terminated after 10 minutes by adding 150 μl 50% trichloroaceticacid. The reaction mixture was neutralized with 185 μl 2 M Na2CO3. The formed xylulose or fructose was measured on a COBAS MIRA (Roche) automated spectrophotometer via enzymatic reduction with 0.04 or 0.5 units of Sorbitol Dehydrogenase (purchased from Roche), respectively in the presence of 0.15 mM NADH at pH 7.0, 37° C. in 200 μl reaction volume. The rate of disappearance of NADH was followed at 340 nm and the concentration of D-xylulose or D-fructose was calculated using calibration curves. […]

For series [3], the target named is T2, Thermus thermophilus xylose isomerase (xylA), mutant 1024 (M1024) (Thermus thermophilus, UniProt P26997, E372G/F163L).
T2 construct: made in house; host or cells: E. coli HB101 (crude lysate)
T2 sequence (P26997 1-387 F163L/E372G): T1 sequence (P26997 1-387 E372G) with F163L
Description: Kinetic characterisation of mutant xylose isomerase 1024 (xylose/glucose isomerase activity, xylitol inhibition). Format: biochemical. The conditions noted are these: mutant 1024, crude enzyme, 10 mM MnCl2, pH 7.0. The method, then: as §1, §2, §5

For series [4], the target named is T3, Thermus thermophilus xylose isomerase, wild type (nucleic acid sequence SEQ ID NO: 2) (Thermus thermophilus, UniProt P26997).
T3 sequence (P26997 1-387): T1 sequence (P26997 1-387 E372G) with G372E
The conditions noted are these: crude enzyme, 10 mM MnCl2, pH 7.0.

Series [5] addresses Thermus thermophilus xylose isomerase mutants (1010, 1021, 1024, 1026). The series is described as follows: Inhibition constant for xylitol, mutants compared to wildtype. Format: biochemical. The note with it: the mutants compared to the wildtype enzyme, xylose 20-400 mM. The protocol:
as §1
as §3, with “preparations. […]” for “preparations.”

In series [6] the target is T3, Thermus thermophilus xylose isomerase, wild type (nucleic acid sequence SEQ ID NO: 2). The series is described as follows: biochemical.
Series [7] concerns the target T4, Thermus thermophilus xylose isomerase (xylA), mutant 1021 (M1021) (Thermus thermophilus, UniProt P26997, E372G/V379A).
T4 construct: made in house; host or cells: E. coli HB101 (crude lysate)
T4 sequence (P26997 1-387 E372G/V379A): T1 sequence (P26997 1-387 E372G) with V379A
Description: Kinetic characterisation of mutant xylose isomerase 1021 (xylose/glucose isomerase activity, xylitol inhibition). Format: biochemical. The protocol:
as §1, §2, §5

Substrate in series [8]: OC1OC[C@@H](O)[C@H](O)[C@H]1O
The series is described as follows: cells, lysate or membranes named. Format: biochemical, Thermus thermophilus. The note with it: 10 mM MnCl2, pH 7.0. The method, then: as §1, §2
as §3, with “preparations. […] The temperature optimum for the mutants were roughly the same as for the wild type enzyme except for mutant 1021, which had ˜10° C. lower temperature optimum.” for “preparations.”
as §4

Substrate in series [9]: OC[C@H]1OC(O)[C@H](O)[C@@H](O)[C@@H]1O
Description: cells, lysate or membranes named. Format: biochemical, Thermus thermophilus. The note with it: other: mutant 1021, crude enzyme, 10 mM MnCl2, pH 7.0. The method, then: as §1, §2
as §3, with “preparations. […] The temperature optimum for the mutants were roughly the same as for the wild type enzyme except for mutant 1021, which had ˜10° C. lower temperature optimum.” for “preparations.”
as §4

A short description of series [10]: Effect of different bivalent cations on the activity of EDTA treated enzymes. Format: biochemical. The conditions noted are these: EDTA treated enzyme, activity with 10 mM MnCl2 at 60° C. set to 100%. The method, then: Furthermore, the effect of different bivalent cations (10 mM) on the activity of EDTA treated enzymes was investigated. The specific activity with 10 mM MnCl2 at 60° C. was set to 100% for each enzyme.

Substrate in series [11]: OC1OC[C@@H](O)[C@H](O)[C@H]1O
Description: cells, lysate or membranes named. The conditions noted are these: other: wild type, crude enzyme, 10 mM MnCl2, pH 7.0.

For series [12] the following is noted: cited from earlier work.
Series [13] can be described thus: Effect of pH on the activity of the enzymes. Format: biochemical. The conditions noted are these: 60° C., 700 mM D-xylose, 10 mM MnCl2, pH range 5-10. The method, then:
The effect of pH on the activity of the enzymes was followed in the pH range 5-10 in a buffer prepared by mixing acetate, piperazine-N,N'-bis-(2-ethanolsulphonic acid) (PIPES), […] (HEPES) and glycine at final concentration 50 mM each as described by (Dekker at al. (1992) Appl. Mirobiol. Biotechnol. 36: 727-732). The pH was adjusted at 60° C. with NaOH.

The nature of series [14]: Xylose isomerase activity assay of crude enzyme preparations from E. coli HB101. Format: biochemical. The method, then:
The cells were harvested by centrifugation in the stationary phase of growth and washed once with ice cold distilled water. […] The suspensions were kept at room temperature for one hour and then on ice for two hours before being put in a freezer at −20° C. The cell lysates were thawed on ice, cell debris was removed by centrifugation (1300 rpm for 15 minutes at 4° C.) and the supernatants were used as the crude enzyme preparations. Protein concentration was determined with the Bradford method (Bradford (1976)) using the Pierce protein reagent with bovine serum albumin as standard. […] The reaction mixture was neutralized with 185 μl 2 M Na2CO3. […] The rate of disappearance of NADH was followed at 340 nm and the concentration of D-xylulose or D-fructose was calculated using calibration curves. […] The specific activity (U min^−1 mg^−1) was determined from the activity and the protein concentration of the crude enzyme preparations.

The mark [15] stands for this setting: mutant 1010, crude enzyme, 10 mM MnCl2, pH 7.0.
The mark [16] stands for this setting: other: mutant 1021, crude enzyme.
[17] abbreviates: other: mutant 1024, crude enzyme.

Sequence of Thermus thermophilus xylose isomerase (xylA), mutant 1010 (M1010) (P26997 whole entry, change not shown): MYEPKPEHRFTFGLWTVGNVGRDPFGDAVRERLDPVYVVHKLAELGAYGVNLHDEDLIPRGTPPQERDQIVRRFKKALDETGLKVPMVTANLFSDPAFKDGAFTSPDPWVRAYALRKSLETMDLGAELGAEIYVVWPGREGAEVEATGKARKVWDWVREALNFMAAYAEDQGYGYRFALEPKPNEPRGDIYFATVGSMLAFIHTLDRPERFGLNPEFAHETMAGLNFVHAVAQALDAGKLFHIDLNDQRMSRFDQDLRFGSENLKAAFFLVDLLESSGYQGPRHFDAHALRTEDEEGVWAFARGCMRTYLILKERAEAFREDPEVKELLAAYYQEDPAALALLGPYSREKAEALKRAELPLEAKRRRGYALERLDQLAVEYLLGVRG

By Km is commonly meant the concentration of substrate that gives half-maximal velocity. For `OC1OC[C@@H](O)[C@H](O)[C@H]1O` (stereo partly drawn) [xylose, D-xylose], the Vmax xylose in [1] (setting [15]) turned out to be 0.44 µmol/min/mg. Also, the Km in series [1] (read-out: Km xylose, mutant 1010, crude enzyme, 10 mM MnCl2, pH 7.0) was 16.6 ± 2.2 mM.
Turning to `OC[C@H]1OC(O)[C@H](O)[C@@H](O)[C@@H]1O` (stereo partly drawn) [glucose], the Vmax glucose in series [2] was determined as 0.18 µmol/min/mg; in [1] (setting [15]), 0.0034 µmol/min/mg; in [3], 0.54 µmol/min/mg; in series [4] it was 0.015 µmol/min/mg.
What is called Ki is the dissociation constant of the complex between target and ligand, obtained from inhibition or displacement. Turning to `OC[C@@H](O)[C@H](O)[C@@H](O)CO` [xylitol], the Ki for xylitol result in [5] is reported as “higher Ki for xylitol”. Moreover, the Ki was 4.6 mM in [6]; 10.1 mM in [1] (read-out: Ki xylitol, mutant 1010, xylose 20-400 mM, fixed xylitol concentrations); 33.2 mM in series [7].

B1: Thermus thermophilus xylose isomerase (xylA), mutant 1021 (M1021) (Thermus thermophilus HB8; E372G/V379A) (protein)
chain: T1 sequence (P26997 1-387 E372G) with V379A
notes: made in house; host or cells: E. coli HB101 (crude lysate)
Take B1: the Km was 25.1 ± 4.0 mM in [8] (setting [16]) and 52.0 ± 4.9 mM in series [9]. The Vmax was 0.84 µmol/min/mg in [8] (setting [16]) and 0.13 µmol/min/mg in series [9].

B2: Thermus thermophilus xylose isomerase, wild type (nucleic acid sequence SEQ ID NO: 2) (Thermus thermophilus HB8) (protein)
chain: T1 sequence (P26997 1-387 E372G) with G372E
Turning to B2, the “Co^2+ (% relative activity)” value in series [10] (10 mM Co2+) was found to be 87.9%. The “Mg^2+ (% relative activity)” value in series [10] (10 mM Mg2+) is on record as 73.8%. Also, in series [11], the Michaelis constant (Km) was determined as 3.44 ± 0.4 mM and the Vmax amounted to 0.043 µmol/min/mg. Further, in series [12], the “activity at 30° C.” value is recorded as “only trace activity”. Moreover, the pH optimum in [13] is 6-7.5. In series [14] (30° C., 700 mM D-xylose, 10 mM MnCl2, pH 7.0, crude enzyme), the “Vmax at 30° C.” value is 0.014 μmol/min^−1mg^−1. Also, in series [14] (xylose as substrate, pH 7.0), the Temp. optimum was found to be 85 °C.

B3: Thermus thermophilus xylose isomerase (xylA), mutant 1024 (M1024) (Thermus thermophilus HB8; E372G/F163L) (protein)
chain: T1 sequence (P26997 1-387 E372G) with F163L
notes: as for B1
For B3, in [8] (setting [17]), the Michaelis constant (Km) was 89.4 ± 8.4 mM and the Vmax turned out to be 3.08 µmol/min/mg.

The values are drawn from patent US6475768B1 (Forskarpatent I Syd AB, priority 2000, dated 2002).
